According to US20080044360A1 (COLLAGEN MEDICAL, published 2008):
Bridge positions count the residues as written; N and C are the ends. Square brackets hold non-standard residues; d marks the D form. Primed or numbered codes have the meaning given here. Side chains are listed from the residue outwards. Ends that are not written are not given here. * marks the point of attachment. Tyr(3-Cl) = N[C@@H](Cc1ccc(O)c(Cl)c1)C(=O)O; Phe(3-OMe) = COc1cccc(C[C@H](N)C(=O)O)c1; Phe(4-F) = N[C@@H](Cc1ccc(F)cc1)C(=O)O; Dmt = Cc1cc(O)cc(C)c1C[C@H](N)C(=O)O; hTyr = N[C@@H](CCc1ccc(O)cc1)C(=O)O; NMeA = CN[C@@H](C)C(=O)O; Gd^T″ = GdDTPA-thiourea; Cbz = O=C(OCc1ccccc1)*

Tests used:
[1] = molecular target: T1, rat collagen, acid soluble, type I, rat tail (Upstate 08-115) (rat, UniProt P02454 152-1207; P02466 86-1125); test: dried collagen assay
T1 construct: tissue extract, gelled and dried in wells; also called dried rat collagen

[2] = molecular target: T2, human collagen type I, acid soluble, extracted from placenta (Sigma C7774) (human, UniProt P02452 162-1218; P08123 80-1119); test: dried collagen assay
T2 construct: tissue extract, gelled and dried in wells; also called dried human collagen; h-Collagen
T2 sequence (P02452 162-1218 limits assumed, chain 1 of 2): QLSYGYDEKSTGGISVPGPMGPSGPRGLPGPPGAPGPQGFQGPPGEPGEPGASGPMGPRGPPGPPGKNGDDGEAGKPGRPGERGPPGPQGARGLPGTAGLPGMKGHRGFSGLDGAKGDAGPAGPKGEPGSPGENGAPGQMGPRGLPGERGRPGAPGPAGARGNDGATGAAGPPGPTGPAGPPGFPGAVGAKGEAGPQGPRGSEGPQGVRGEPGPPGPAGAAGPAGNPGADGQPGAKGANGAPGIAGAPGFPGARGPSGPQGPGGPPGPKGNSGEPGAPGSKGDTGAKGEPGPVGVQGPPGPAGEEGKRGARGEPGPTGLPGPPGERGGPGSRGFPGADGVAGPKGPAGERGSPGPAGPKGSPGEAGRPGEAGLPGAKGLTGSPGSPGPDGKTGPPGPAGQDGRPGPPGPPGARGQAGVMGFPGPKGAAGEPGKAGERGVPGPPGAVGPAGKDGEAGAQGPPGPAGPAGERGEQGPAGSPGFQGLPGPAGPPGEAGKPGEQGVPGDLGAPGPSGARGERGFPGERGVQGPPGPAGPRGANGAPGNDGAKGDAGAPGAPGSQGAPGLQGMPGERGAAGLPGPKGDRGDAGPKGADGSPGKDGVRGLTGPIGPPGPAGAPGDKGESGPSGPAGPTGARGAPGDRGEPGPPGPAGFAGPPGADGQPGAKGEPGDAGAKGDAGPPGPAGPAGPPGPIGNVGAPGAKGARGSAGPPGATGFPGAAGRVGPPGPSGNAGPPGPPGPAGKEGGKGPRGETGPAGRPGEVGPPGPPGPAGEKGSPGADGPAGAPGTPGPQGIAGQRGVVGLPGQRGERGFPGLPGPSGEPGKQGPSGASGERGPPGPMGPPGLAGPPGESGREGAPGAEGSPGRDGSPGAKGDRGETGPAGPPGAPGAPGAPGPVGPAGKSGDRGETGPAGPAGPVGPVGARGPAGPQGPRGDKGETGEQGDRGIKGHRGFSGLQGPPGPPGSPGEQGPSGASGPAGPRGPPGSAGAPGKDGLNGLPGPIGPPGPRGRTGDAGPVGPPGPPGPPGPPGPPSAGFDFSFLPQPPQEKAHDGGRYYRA
T2 sequence (P08123 80-1119 limits assumed, chain 2 of 2): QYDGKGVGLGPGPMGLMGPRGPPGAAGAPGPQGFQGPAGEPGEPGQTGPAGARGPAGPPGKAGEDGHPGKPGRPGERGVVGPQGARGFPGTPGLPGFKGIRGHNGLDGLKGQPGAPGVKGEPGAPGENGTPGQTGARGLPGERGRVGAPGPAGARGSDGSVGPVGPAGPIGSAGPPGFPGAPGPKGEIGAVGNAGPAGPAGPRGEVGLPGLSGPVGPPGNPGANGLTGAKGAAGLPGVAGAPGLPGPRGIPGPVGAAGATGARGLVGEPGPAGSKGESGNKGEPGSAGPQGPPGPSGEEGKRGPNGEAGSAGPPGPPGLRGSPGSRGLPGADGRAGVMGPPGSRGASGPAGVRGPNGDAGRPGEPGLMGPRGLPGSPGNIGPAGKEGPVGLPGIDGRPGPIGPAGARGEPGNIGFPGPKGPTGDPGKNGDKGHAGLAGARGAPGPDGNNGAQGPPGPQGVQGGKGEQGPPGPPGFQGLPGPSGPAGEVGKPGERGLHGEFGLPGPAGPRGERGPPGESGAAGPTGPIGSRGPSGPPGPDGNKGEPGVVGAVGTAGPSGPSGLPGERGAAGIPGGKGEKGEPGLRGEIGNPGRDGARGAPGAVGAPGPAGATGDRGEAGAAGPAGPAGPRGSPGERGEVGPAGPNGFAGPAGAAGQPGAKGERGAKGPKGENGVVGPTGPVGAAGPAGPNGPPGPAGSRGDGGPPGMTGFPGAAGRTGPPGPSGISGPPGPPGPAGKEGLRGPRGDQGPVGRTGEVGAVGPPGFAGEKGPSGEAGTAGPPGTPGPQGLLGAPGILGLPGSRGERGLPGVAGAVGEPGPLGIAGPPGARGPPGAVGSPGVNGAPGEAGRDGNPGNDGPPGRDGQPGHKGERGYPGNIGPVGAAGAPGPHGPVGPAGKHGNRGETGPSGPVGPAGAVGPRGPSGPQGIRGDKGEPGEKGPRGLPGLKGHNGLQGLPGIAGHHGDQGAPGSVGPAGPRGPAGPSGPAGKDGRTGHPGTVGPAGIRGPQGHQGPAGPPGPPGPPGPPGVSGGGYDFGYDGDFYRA

T1 sequence (P02454 152-1207, chain 1 of 2): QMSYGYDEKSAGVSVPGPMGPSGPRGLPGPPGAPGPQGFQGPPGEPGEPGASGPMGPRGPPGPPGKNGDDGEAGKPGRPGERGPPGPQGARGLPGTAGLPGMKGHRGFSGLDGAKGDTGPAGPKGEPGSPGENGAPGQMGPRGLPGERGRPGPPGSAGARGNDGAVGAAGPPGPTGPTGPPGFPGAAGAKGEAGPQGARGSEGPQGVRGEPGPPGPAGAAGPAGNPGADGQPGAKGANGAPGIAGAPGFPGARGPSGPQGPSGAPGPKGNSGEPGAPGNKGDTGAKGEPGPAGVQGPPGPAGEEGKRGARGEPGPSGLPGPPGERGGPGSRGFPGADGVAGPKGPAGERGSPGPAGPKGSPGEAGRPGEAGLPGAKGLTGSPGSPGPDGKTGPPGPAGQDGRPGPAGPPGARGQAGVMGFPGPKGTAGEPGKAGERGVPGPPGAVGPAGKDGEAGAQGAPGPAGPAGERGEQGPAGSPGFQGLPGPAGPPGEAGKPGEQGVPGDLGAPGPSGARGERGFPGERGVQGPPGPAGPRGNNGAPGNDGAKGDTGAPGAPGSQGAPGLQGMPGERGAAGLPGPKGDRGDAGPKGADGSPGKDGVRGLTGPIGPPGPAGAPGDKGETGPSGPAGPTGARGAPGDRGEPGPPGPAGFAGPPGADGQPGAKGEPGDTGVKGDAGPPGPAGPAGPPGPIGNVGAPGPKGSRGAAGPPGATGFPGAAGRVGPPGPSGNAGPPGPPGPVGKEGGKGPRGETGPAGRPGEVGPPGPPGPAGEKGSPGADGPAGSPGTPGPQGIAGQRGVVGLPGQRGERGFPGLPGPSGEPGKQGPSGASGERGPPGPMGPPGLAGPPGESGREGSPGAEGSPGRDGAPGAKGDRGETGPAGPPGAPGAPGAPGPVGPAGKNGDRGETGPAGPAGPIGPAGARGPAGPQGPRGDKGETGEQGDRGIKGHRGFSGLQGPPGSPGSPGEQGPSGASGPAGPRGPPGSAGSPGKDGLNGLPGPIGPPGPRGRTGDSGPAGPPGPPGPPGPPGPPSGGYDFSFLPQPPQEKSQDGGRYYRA
T1 sequence (P02466 86-1125, chain 2 of 2): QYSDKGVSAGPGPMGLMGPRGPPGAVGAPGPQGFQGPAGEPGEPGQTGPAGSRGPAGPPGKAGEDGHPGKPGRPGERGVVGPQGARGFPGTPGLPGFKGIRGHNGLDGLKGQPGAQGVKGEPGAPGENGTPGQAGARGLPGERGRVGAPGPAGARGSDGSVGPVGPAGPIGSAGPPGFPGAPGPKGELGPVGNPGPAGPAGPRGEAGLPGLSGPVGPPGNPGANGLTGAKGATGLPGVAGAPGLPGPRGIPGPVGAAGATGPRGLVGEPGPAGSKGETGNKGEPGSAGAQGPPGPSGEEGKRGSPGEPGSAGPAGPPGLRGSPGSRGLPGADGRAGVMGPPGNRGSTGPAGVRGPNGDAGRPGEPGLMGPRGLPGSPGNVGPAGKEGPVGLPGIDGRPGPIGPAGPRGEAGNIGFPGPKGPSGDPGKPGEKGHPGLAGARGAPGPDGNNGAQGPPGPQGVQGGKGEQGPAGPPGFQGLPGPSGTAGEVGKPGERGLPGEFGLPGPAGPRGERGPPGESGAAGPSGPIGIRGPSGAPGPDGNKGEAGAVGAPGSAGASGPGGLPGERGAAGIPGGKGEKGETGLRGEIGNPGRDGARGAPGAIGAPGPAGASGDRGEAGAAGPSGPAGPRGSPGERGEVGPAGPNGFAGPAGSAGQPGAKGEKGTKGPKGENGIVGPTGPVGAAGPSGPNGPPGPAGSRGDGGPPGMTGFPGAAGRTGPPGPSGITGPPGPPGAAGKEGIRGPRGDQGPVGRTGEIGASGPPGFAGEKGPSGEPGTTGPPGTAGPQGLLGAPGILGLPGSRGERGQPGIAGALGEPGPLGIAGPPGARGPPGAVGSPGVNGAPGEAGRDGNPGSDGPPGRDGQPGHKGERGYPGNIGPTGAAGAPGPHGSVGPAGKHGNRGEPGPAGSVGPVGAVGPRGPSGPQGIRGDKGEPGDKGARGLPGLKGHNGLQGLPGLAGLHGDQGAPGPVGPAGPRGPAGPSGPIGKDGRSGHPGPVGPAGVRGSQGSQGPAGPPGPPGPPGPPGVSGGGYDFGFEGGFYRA

B1: Compound ID 910 (peptide)
peptide: {Gd^T″}-GDWHCTTLFPHH[dY]CLYG
modifications: disulfide 5-14 (inferred); not fully specified (C-terminus)
**Q.** How did the “% bound” value [1] turn out when B1 was run?
**A.** 0%

**Q.** And the “% bound” value [2]?
**A.** 13%

B2: Compound ID 933 (peptide)
peptide: {Gd^T″}-GQWHCTTRFPHH[hTyr]CLYG
modifications: disulfide 5-14 (inferred)
**Q.** How did the “% bound” value [1] turn out when B2 was run?
**A.** 24%

**Q.** And the “% bound” value [2]?
**A.** 36%

B3: Compound ID 963 (peptide)
peptide: {Gd^T″}-GK([Gly-Gd^T″])WHCYTYFPYHYCVYG
modifications: disulfide 5-14 (inferred)
**Q.** B3 was tested. Which “% bound” value [1] did it give?
**A.** 91%

**Q.** And the “% bound” value [2]?
**A.** 82%

B4: Compound ID 946 (peptide)
peptide: {Gd^T″}-GK([Gly-Gd^T″])WHCTTYFPYHYCLYG
modifications: disulfide 5-14 (inferred)
**Q.** What does the source list for B4?
**A.** % bound [1]: 68%; % bound [2]: 71%

B5: Compound ID 953 (peptide)
peptide: {Gd^T″}-GK([Gly-Gd^T″])WHCTTYFPHH[Dmt]CLYG
modifications: disulfide 5-14 (inferred)
**Q.** How did the “% bound” value [1] turn out when B5 was run?
**A.** 50%

**Q.** And the “% bound” value [2]?
**A.** 50%

B6: Compound ID 922 (peptide)
peptide: {Gd^T″}-GQWNCTTLFPHHYCLYG
modifications: disulfide 5-14 (inferred)
**Q.** Which “% bound” value [1] does the source give for B6 here?
**A.** 58%

**Q.** What about the “% bound” value [2] of the same binder?
**A.** 68%

B7: Compound ID 928 (peptide)
peptide: {Gd^T″}-GQWHCTTLFPHHYCVYG
modifications: disulfide 5-14 (inferred)
**Q.** For B7, which “% bound” value [1] is on record?
**A.** 80%

**Q.** What about the “% bound” value [2] of the same binder?
**A.** 73%

B8: Compound ID 965 (peptide)
peptide: {Gd^T″}-GK([Gly-Gd^T″])WHCTTYFPHHVCLYG
modifications: disulfide 5-14 (inferred)
**Q.** B8 was tested. Which “% bound” value [1] did it give?
**A.** 11%

**Q.** What about the “% bound” value [2] of the same binder?
**A.** 26%

B9: Compound ID 934 (peptide)
peptide: {Gd^T″}-GQWHCTTRFPHH[hTyr(Me)]CLYG
modifications: disulfide 5-14 (inferred)
**Q.** B9 was tested. Which “% bound” value [1] did it give?
**A.** 14%

**Q.** What about the “% bound” value [2] of the same binder?
**A.** 21%

B10: Compound ID 948 (peptide)
peptide: {Gd^T″}-GK([Gly-Gd^T″])WHCTTYFPHWYCLYG
modifications: disulfide 5-14 (inferred)
**Q.** B10 was tested. Which “% bound” value [1] did it give?
**A.** 17%

**Q.** What about the “% bound” value [2] of the same binder?
**A.** 25%

B11: Compound ID 927 (peptide)
peptide: {Gd^T″}-GQWHCTTLFPHHYCIYG
modifications: disulfide 5-14 (inferred)
**Q.** Which results are given for B11?
**A.** % bound [1]: 63%; % bound [2]: 64%

B12: Compound ID 921 (peptide)
peptide: {Gd^T″}-GQWHCTYLFPHHYCLYG
modifications: disulfide 5-14 (inferred)
**Q.** How did the “% bound” value [1] turn out when B12 was run?
**A.** 35%

**Q.** And the “% bound” value [2]?
**A.** 68%

B13: Compound ID 949 (peptide)
peptide: {Gd^T″}-GK([Gly-Gd^T″])WHCTTYFPHHYCLYY
modifications: disulfide 5-14 (inferred)
**Q.** Which results are given for B13?
**A.** % bound [1]: 79%; % bound [2]: 72%

B14: Compound ID 923 (peptide)
peptide: {Gd^T″}-GQWHCTTLFPNHYCLYG
modifications: disulfide 5-14 (inferred)
**Q.** B14 was tested. Which “% bound” value [1] did it give?
**A.** 10%

**Q.** And the “% bound” value [2]?
**A.** 28%

B15: Compound ID 954 (peptide)
peptide: {Gd^T″}-GQWHCTTRFPHHYCLYG
modifications: disulfide 5-14 (inferred); not fully specified (C-terminus)
**Q.** How did the “% bound” value [1] turn out when B15 was run?
**A.** 22%

**Q.** And the “% bound” value [2]?
**A.** 31%

B16: Compound ID 911 (peptide)
peptide: {Gd^T″}-GSWHCTTLFPHH[dY]CLYG
modifications: disulfide 5-14 (inferred); not fully specified (C-terminus)
**Q.** With B16 as the binder, how does the “% bound” value [1] read?
**A.** 0%

**Q.** And the “% bound” value [2]?
**A.** 15%

B17: Compound ID 930 (peptide)
peptide: {Gd^T″}-GK([Gly-Gd^T″])WHCTTLFPHHYCLYG
modifications: disulfide 5-14 (inferred)
**Q.** For B17, which “% bound” value [1] is on record?
**A.** 42%

**Q.** What about the “% bound” value [2] of the same binder?
**A.** 31%

B18: Compound ID 952 (peptide)
peptide: {Gd^T″}-GK([Gly-Gd^T″])WHCTTYFPHH[Tyr(3-Cl)]CLYG
modifications: disulfide 5-14 (inferred)
**Q.** How did the “% bound” value [1] turn out when B18 was run?
**A.** 72%

**Q.** And the “% bound” value [2]?
**A.** 52%

B19: Compound ID 920 (peptide)
peptide: GQWHCYTLFPHHYCLYG
modifications: disulfide 5-14 (inferred); not fully specified (N-terminus)
**Q.** For B19, which “% bound” value [1] is on record?
**A.** 91%

**Q.** What about the “% bound” value [2] of the same binder?
**A.** 67%

B20: Compound ID 917 (peptide)
peptide: {Gd^T″}-GQWHCTTIFPHH[dY]CLYG
modifications: disulfide 5-14 (inferred); not fully specified (C-terminus)
**Q.** B20 was tested. Which “% bound” value [1] did it give?
**A.** 0%

**Q.** What about the “% bound” value [2] of the same binder?
**A.** 12%

B21: Compound ID 958 (peptide)
peptide: {Gd^T″}-GQWHCTTRFPK(Gd^T″)HYCLYG
modifications: disulfide 5-14 (inferred)
**Q.** B21 was tested. Which “% bound” value [1] did it give?
**A.** 33%

**Q.** What about the “% bound” value [2] of the same binder?
**A.** 45%

B22: Compound ID 945 (peptide)
peptide: {Gd^T″}-GK([Gly-Gd^T″])WHCYTYFPHHYCVYY
modifications: disulfide 5-14 (inferred)
**Q.** With B22 as the binder, how does the “% bound” value [1] read?
**A.** 82%

**Q.** And the “% bound” value [2]?
**A.** 83%

B23: Compound ID 962 (peptide)
peptide: {Gd^T″}-GK([Gly-Gd^T″])WHCTTYFPTHYCLYG
modifications: disulfide 5-14 (inferred)
**Q.** How did the “% bound” value [1] turn out when B23 was run?
**A.** 10%

**Q.** And the “% bound” value [2]?
**A.** 20%

B24: Compound ID 964 (peptide)
peptide: {Gd^T″}-GK([Gly-Gd^T″])WHCYTYFPYHYCLYG
modifications: disulfide 5-14 (inferred)
**Q.** What does the source list for B24?
**A.** % bound [1]: 86%; % bound [2]: 88%

B25: Compound ID 929 (peptide)
peptide: {Gd^T″}-GQWHCTT[Phe(4-F)]FPHHYCLYG
modifications: disulfide 5-14 (inferred)
**Q.** How did the “% bound” value [1] turn out when B25 was run?
**A.** 34%

**Q.** What about the “% bound” value [2] of the same binder?
**A.** 27%

B26: Compound ID 931 (peptide)
peptide: {Gd^T″}-GQWHCTTRFPHHYCFYG
modifications: disulfide 5-14 (inferred)
**Q.** Which “% bound” value [1] does the source give for B26 here?
**A.** 83%

**Q.** What about the “% bound” value [2] of the same binder?
**A.** 70%

B27: Compound ID 957 (peptide)
peptide: {Gd^T″}-GQWHCK(Gd^T″)TRFPHHYCLYG
modifications: disulfide 5-14 (inferred)
**Q.** Which “% bound” value [1] does the source give for B27 here?
**A.** 39%

**Q.** And the “% bound” value [2]?
**A.** 42%

B28: Compound ID 947 (peptide)
peptide: {Gd^T″}-GK([Gly-Gd^T″])WHCTTYFPHYYCLYG
modifications: disulfide 5-14 (inferred)
**Q.** How did the “% bound” value [1] turn out when B28 was run?
**A.** 57%

**Q.** And the “% bound” value [2]?
**A.** 64%

B29: Compound ID 956 (peptide)
peptide: {Gd^T″}-GQWK(Gd^T″)CTTRFPHHYCLYG
modifications: disulfide 5-14 (inferred)
**Q.** B29 was tested. Which “% bound” value [1] did it give?
**A.** 15%

**Q.** And the “% bound” value [2]?
**A.** 39%

B30: Compound ID 942 (peptide)
peptide: {Gd^T″}-GK([Gly-Gd^T″])WHCTTYFPHHYCVYG
modifications: disulfide 5-14 (inferred)
**Q.** What does the source list for B30?
**A.** % bound [1]: 67%; % bound [2]: 78%

B31: Compound ID 944 (peptide)
peptide: {Gd^T″}-GK([Gly-Gd^T″])WHCYTYFPHHYCVYG
modifications: disulfide 5-14 (inferred)
**Q.** For B31, which “% bound” value [1] is on record?
**A.** 84%

**Q.** What about the “% bound” value [2] of the same binder?
**A.** 91%

B32: Compound ID 926 (peptide)
peptide: Cbz-GQWHCTTK(Gd^T″)FPHHYCLYG
modifications: disulfide 5-14 (inferred)
**Q.** What does the source list for B32?
**A.** % bound [1]: 87%; % bound [2]: 81%

B33: Compound ID 915 (peptide)
peptide: {Gd^T″}-GAWHCTTYFPHH[dY]CLYG
modifications: disulfide 5-14 (inferred); not fully specified (C-terminus)
**Q.** B33 was tested. Which “% bound” value [1] did it give?
**A.** 0%

**Q.** And the “% bound” value [2]?
**A.** 15%

B34: Compound ID 935 (peptide)
peptide: {Gd^T″}-GQWHCTTRFPHH[Phe(3-OMe)]CLYG
modifications: disulfide 5-14 (inferred)
**Q.** For B34, which “% bound” value [1] is on record?
**A.** 39%

**Q.** What about the “% bound” value [2] of the same binder?
**A.** 59%

B35: Compound ID 924 (peptide)
peptide: {Gd^T″}-GQWHCTTLFPHNYCLYG
modifications: disulfide 5-14 (inferred)
**Q.** How did the “% bound” value [1] turn out when B35 was run?
**A.** 1%

**Q.** What about the “% bound” value [2] of the same binder?
**A.** 24%

B36: Compound ID 959 (peptide)
peptide: {Gd^T″}-GQWHCYTLFPHHYCLYG
modifications: disulfide 5-14 (inferred)
**Q.** How did the “% bound” value [1] turn out when B36 was run?
**A.** 68%

**Q.** And the “% bound” value [2]?
**A.** 58%

B37: Compound ID 938 (peptide)
peptide: {Gd^T″}-GQWHCTTRF[NMeA]HHYCLYG
modifications: disulfide 5-14 (inferred)
**Q.** B37 was tested. Which “% bound” value [1] did it give?
**A.** 13%

**Q.** What about the “% bound” value [2] of the same binder?
**A.** 16%

B38: Compound ID 943 (peptide)
peptide: {Gd^T″}-GK([Gly-Gd^T″])WHCYTYFPHHYCLYG
modifications: disulfide 5-14 (inferred)
**Q.** How did the “% bound” value [1] turn out when B38 was run?
**A.** 72%

**Q.** And the “% bound” value [2]?
**A.** 55%
